Biological target: FMC63-scFv (VL - Whitlow linker - VH, C-terminal His8 tag) (mouse)
Assay: SEC-MALS; 25 µg injected, Superdex 200 Increase 10/300 GL, PBS with additional 200 mM NaCl, pH 7.4, 25 °C

percent dimers: 20% | stoichiometry N: 2
Substance: FMC63-scFv (VL - Whitlow linker - VH, C-terminal His8 tag)
